Measurements taken from ChEMBL document CHEMBL1122067, “Species- or isozyme-specific enzyme inhibitors. 4. Design of a two-site inhibitor of adenylate kinase with isozyme selectivity” (J Med Chem, 1982).

Experiments:
[1] = substrate: Nc1ncnc2c1ncn2[C@@H]1O[C@H](COP(=O)(O)O)[C@@H](O)[C@H]1O; experiment: (§1) Concentration for half-maximal velocity for adenylate kinase (AK III) was determined
[2] = substrate: CCCCSc1ncnc2c1ncn2C1O[C@H](COP(=O)(O)OP(=O)(O)OP(=O)(O)O)[C@@H](O)[C@H]1O; experiment: as §1
[3] = substrate: O=C(CI)NCCCCCNc1ncnc2c1ncn2C1O[C@H](COP(=O)(O)OP(=O)(O)OP(=O)(O)O)[C@@H](O)[C@H]1O; experiment: as §1
[4] = substrate: CCCCNc1ncnc2c1ncn2C1O[C@H](COP(=O)(O)OP(=O)(O)OP(=O)(O)O)[C@@H](O)[C@H]1O; experiment: as §1
[5] = compound: CCCCN(CCCC)c1ncnc2c1ncn2C1O[C@H](COP(=O)(O)OP(=O)(O)OP(=O)(O)O)[C@@H](O)[C@H]1O; experiment: (§2) Inhibitory constant of rat adenylate kinase (AK III) isozymes expressed as relative maximal velocity
[6] = compound: Nc1ncnc2c1ncn2[C@@H]1O[C@H](COP(=O)(O)O)[C@@H](O)[C@H]1O; experiment: as §2
[7] = compound: CCCCSc1ncnc2c1ncn2C1O[C@H](COP(=O)(O)OP(=O)(O)OP(=O)(O)O)[C@@H](O)[C@H]1O; experiment: as §2
[8] = compound: O=C(CI)NCCCCCNc1ncnc2c1ncn2C1O[C@H](COP(=O)(O)OP(=O)(O)OP(=O)(O)O)[C@@H](O)[C@H]1O; experiment: as §2
[9] = compound: CC(=O)NCCCCCCCCNc1ncnc2c1ncn2C1O[C@H](COP(=O)(O)O)[C@@H](O)[C@H]1O; experiment: as §2
[10] = compound: CCCCNc1ncnc2c1ncn2C1O[C@H](COP(=O)(O)OP(=O)(O)OP(=O)(O)O)[C@@H](O)[C@H]1O; experiment: as §2
[11] = substrate: CC(=O)NCCNc1ncnc2c1ncn2C1O[C@H](COP(=O)(O)O)[C@@H](O)[C@H]1O; experiment: Rat Adenylate kinase III and maximal velocity was determined
[12] = compound: CCSc1nc2c(N)ncnc2n1[C@@H]1O[C@H](COP(=O)(O)O)[C@@H](O)[C@H]1O; experiment: Inhibitory constant of rat adenylate kinase (AK II) isozymes expressed as relative maximal velocity

B1: GTP:AMP phosphotransferase AK3, mitochondrial (Rattus norvegicus), P29411 (protein)
chain: MGASGRLLRAVIMGAPGSGKGTGSSRITKHFELKHLSSGDLLRQNMLQGTEIAVLAKSFIDQGKLIPDDDMTRLALHELKNLTQCSWLLDGFPRTLPQAEALDRVYQIDTVINLNVPFEVIKLRLTARWIHPASGRVYNIEFNPPKTVGIDDLTGEPLIQREDDKPETVIKRLKAYEAQTEPVLQYYQKKGVLETFSGTETNKIRPHVYSFLQMKVPETIQKASVTP
With B1 the Km [1] was 90 µM, the Km [2] was 1450 µM and the Km [3] was 400 µM. The Km [4] was 1200 µM, the Vmax [5] was 0% and the Vmax [6] was 100%. The Vmax [7] was 57%, the Vmax [8] was 9% and the Vmax [9] was 0%. For the same protein, the Vmax [10] was 25%, the Vmax [11] was 0% and the Vmax [12] was 0%.
